From doi:10.1101/585943 (bioRxiv, 2019)

Molecular target: the molecule itself
Assay: cryo-EM structure

B1: SgrAI, type II restriction endonuclease, his-tagged wild type (enzyme, Streptomyces griseus)
chain: PFTYSIEATRNLATTERCIQDIRNAPVRNRSTQFQLAQQNMLAYTFGEVIPGFASAGINGMNYRDVIGRPVENAVTEGTHFFRDDFRVDSNAKAKVAGDIFEIVSSAVMWNCAARWNSLMVGEGWRSQPRYSRPTLSPSPRRQVAVLNLPRSFDWVSLLVPESQEVIEEFRAGLRKDGLGLPTSTPDLAVVVLPEEFQNDEMWREEIAGLTRPNQILLSGAYQRLQGRVQPGEISLAVAFKRSLRSDRLYQPLYEANVMQLLLEGKLGAPKVEFEVHTLAPEGTNAFVTYEAASLYGLAEGRSAVHRAIRELYVPPTAADLARRFFAFLNERMELVNG
  binding result: binds
